The results in this text go back to PMC12102759 (2025).

First the molecules themselves.
B1: NOTCH4 peptide 1606-1621 (Neurogenic locus notch homolog protein 4), 16-mer library wild type / NSP9 (ORF1ab Nsp9, residues 4141-4253) (parent complex)
chain 1: QGAWLGAPEPWEPLLD
chain 2: NNELSPVALRQMSCAAGTTQTACTDDNALAYYNTTKGGRFVLALLSDLQDLKWARFPKSDGTGTIYTELEPPCRFVTDTPKGPKVKYLYFIKGLNNLNRGMVLGSLAATVRLQ
B2: AZIN2 peptide 1-16 (Antizyme inhibitor 2), 16-mer library wild type / NSP3 ADRP (ORF1ab Nsp3b ADRP, residues 1023-1192) (parent complex)
chain 1: MAGYLSESDFVMVEEG
chain 2: not shown

The variants in one test derive from B1. The experiment in a line: bait immobilised on MaxiSorp plates (10 µg), library pre-cleared on GST, 2 h binding at 4 °C, five washes; one round per day, days 1-4; value from days 2 and 3.
On to chain 1 QGAWLGAPEPWLPLLD, for which the screen value was 0.00277 average fractional NGS count over selection days 2 and 3 (reads of this peptide / all reads for the bait, averaged over …. Same read-out and setting: the value for chain 1 QGAWLGAPEPWGPLLD was 0.00333 average fractional NGS count over selection days 2 and 3 (reads of this peptide / all reads for the bait, averaged over …; that for chain 1 QGAWLGAPEPWYPLLD was 0.00153 average fractional NGS count over selection days 2 and 3 (reads of this peptide / all reads for the bait, averaged over …; that for chain 1 QGAWLGAPEPWTPLLD was 0.00258 average fractional NGS count over selection days 2 and 3 (reads of this peptide / all reads for the bait, averaged over …. The same measure, in the same setting: the value for chain 1 QGAWLGAPEPWQPLLD was 0.00173 average fractional NGS count over selection days 2 and 3 (reads of this peptide / all reads for the bait, averaged over …; that for chain 1 QGAWLGAPEPWWPLLD was 0.0479 average fractional NGS count over selection days 2 and 3 (reads of this peptide / all reads for the bait, averaged over …. In the case of chain 1 QGAWLGAPEPWHPLLD, the screen value is 8.76e-05 average fractional NGS count over selection days 2 and 3 (reads of this peptide / all reads for the bait, averaged over …. As for chain 1 QGYWLGAPEPWEPLLD, the screen value is 0.00272 average fractional NGS count over selection days 2 and 3 (reads of this peptide / all reads for the bait, averaged over …. On the same count and under the same terms, as for chain 1 QGFWLGAPEPWEPLLD, the figure is 0.00137 average fractional NGS count over selection days 2 and 3 (reads of this peptide / all reads for the bait, averaged over …; as for chain 1 QGMWLGAPEPWEPLLD, 0.0101 average fractional NGS count over selection days 2 and 3 (reads of this peptide / all reads for the bait, averaged over ….

Variants of B2 are the subject of a further test. Described as above.
chain 1 E15D: the screen value is 9.82e-05 average fractional NGS count over selection days 2 and 3 (reads of this peptide / all reads for the bait, averaged over …. Same read-out and setting: the value for chain 1 E15N was 0.000739 average fractional NGS count over selection days 2 and 3 (reads of this peptide / all reads for the bait, averaged over …. Regarding chain 1 E15P, the screen value was 7.42e-05 average fractional NGS count over selection days 2 and 3 (reads of this peptide / all reads for the bait, averaged over …. On the same count and under the same terms, the value for chain 1 E15H was 0.00102 average fractional NGS count over selection days 2 and 3 (reads of this peptide / all reads for the bait, averaged over …; that for chain 1 E15S was 0.00159 average fractional NGS count over selection days 2 and 3 (reads of this peptide / all reads for the bait, averaged over …. On the same count and under the same terms, the value for chain 1 E15T was 0.000718 average fractional NGS count over selection days 2 and 3 (reads of this peptide / all reads for the bait, averaged over …; that for chain 1 Y4W was 0.00197 average fractional NGS count over selection days 2 and 3 (reads of this peptide / all reads for the bait, averaged over …; that for chain 1 V11M was 0.000364 average fractional NGS count over selection days 2 and 3 (reads of this peptide / all reads for the bait, averaged over …. In the case of chain 1 V11E, the screen value is 0.000156 average fractional NGS count over selection days 2 and 3 (reads of this peptide / all reads for the bait, averaged over …. The same measure, in the same setting: as for chain 1 V11L, the figure is 0.0066 average fractional NGS count over selection days 2 and 3 (reads of this peptide / all reads for the bait, averaged over …; as for chain 1 V11T, 0.000107 average fractional NGS count over selection days 2 and 3 (reads of this peptide / all reads for the bait, averaged over …; as for chain 1 V11I, 0.195 average fractional NGS count over selection days 2 and 3 (reads of this peptide / all reads for the bait, averaged over ….

Consider chain 1 V11H, for which the screen value is 7.39e-05 average fractional NGS count over selection days 2 and 3 (reads of this peptide / all reads for the bait, averaged over …. On the same count and under the same terms, the value for chain 1 S8M was 0.000908 average fractional NGS count over selection days 2 and 3 (reads of this peptide / all reads for the bait, averaged over …; that for chain 1 S8T was 0.00377 average fractional NGS count over selection days 2 and 3 (reads of this peptide / all reads for the bait, averaged over …; that for chain 1 S8H was 6.7e-05 average fractional NGS count over selection days 2 and 3 (reads of this peptide / all reads for the bait, averaged over …. As for chain 1 G16D, the screen value is 0.00105 average fractional NGS count over selection days 2 and 3 (reads of this peptide / all reads for the bait, averaged over ….

In the case of chain 1 G16F, the screen value is 0.000171 average fractional NGS count over selection days 2 and 3 (reads of this peptide / all reads for the bait, averaged over …. For chain 1 G16P, the screen value was 9.14e-05 average fractional NGS count over selection days 2 and 3 (reads of this peptide / all reads for the bait, averaged over …. Turning to chain 1 G16S, the screen value is 0.000137 average fractional NGS count over selection days 2 and 3 (reads of this peptide / all reads for the bait, averaged over …. chain 1 G16L: the screen value was 0.000127 average fractional NGS count over selection days 2 and 3 (reads of this peptide / all reads for the bait, averaged over …. On to chain 1 G16Q, for which the screen value is 0.000216 average fractional NGS count over selection days 2 and 3 (reads of this peptide / all reads for the bait, averaged over …. Same read-out and setting: the value for chain 1 G16H was 0.000328 average fractional NGS count over selection days 2 and 3 (reads of this peptide / all reads for the bait, averaged over …; that for chain 1 G16V was 0.000213 average fractional NGS count over selection days 2 and 3 (reads of this peptide / all reads for the bait, averaged over …. Turning to chain 1 G16E, the screen value was 0.000344 average fractional NGS count over selection days 2 and 3 (reads of this peptide / all reads for the bait, averaged over …. The same measure, in the same setting: the value for chain 1 G16N was 0.00027 average fractional NGS count over selection days 2 and 3 (reads of this peptide / all reads for the bait, averaged over …; that for chain 1 G16A was 0.00182 average fractional NGS count over selection days 2 and 3 (reads of this peptide / all reads for the bait, averaged over …; that for chain 1 V13H was 0.00368 average fractional NGS count over selection days 2 and 3 (reads of this peptide / all reads for the bait, averaged over ….

With chain 1 V13I, the screen value was 0.00423 average fractional NGS count over selection days 2 and 3 (reads of this peptide / all reads for the bait, averaged over …. On the same count and under the same terms, as for chain 1 V13T, the figure is 8.71e-05 average fractional NGS count over selection days 2 and 3 (reads of this peptide / all reads for the bait, averaged over ….

On to chain 1 V13M, for which the screen value is 0.000618 average fractional NGS count over selection days 2 and 3 (reads of this peptide / all reads for the bait, averaged over ….

Turning to chain 1 E14N, the screen value is 0.000346 average fractional NGS count over selection days 2 and 3 (reads of this peptide / all reads for the bait, averaged over …. On the same count and under the same terms, the value for chain 1 E14P was 0.0011 average fractional NGS count over selection days 2 and 3 (reads of this peptide / all reads for the bait, averaged over …; that for chain 1 E14S was 0.000258 average fractional NGS count over selection days 2 and 3 (reads of this peptide / all reads for the bait, averaged over …; that for chain 1 E14R was 0.000473 average fractional NGS count over selection days 2 and 3 (reads of this peptide / all reads for the bait, averaged over …. Same read-out and setting: as for chain 1 E14M, the figure is 0.000122 average fractional NGS count over selection days 2 and 3 (reads of this peptide / all reads for the bait, averaged over …; as for chain 1 E14Q, 0.00039 average fractional NGS count over selection days 2 and 3 (reads of this peptide / all reads for the bait, averaged over …; as for chain 1 G3D, 0.00677 average fractional NGS count over selection days 2 and 3 (reads of this peptide / all reads for the bait, averaged over …. On to chain 1 G3H, for which the screen value was 8.37e-05 average fractional NGS count over selection days 2 and 3 (reads of this peptide / all reads for the bait, averaged over …. The same measure, in the same setting: the value for chain 1 G3M was 0.000375 average fractional NGS count over selection days 2 and 3 (reads of this peptide / all reads for the bait, averaged over …; that for chain 1 G3K was 0.00086 average fractional NGS count over selection days 2 and 3 (reads of this peptide / all reads for the bait, averaged over …; that for chain 1 G3R was 7.43e-05 average fractional NGS count over selection days 2 and 3 (reads of this peptide / all reads for the bait, averaged over …. Still for that read-out and setting: as for chain 1 G3Q, the figure is 0.000537 average fractional NGS count over selection days 2 and 3 (reads of this peptide / all reads for the bait, averaged over ….

As for chain 1 D9K, the screen value is 0.00156 average fractional NGS count over selection days 2 and 3 (reads of this peptide / all reads for the bait, averaged over ….

With chain 1 D9G, the screen value was 0.000412 average fractional NGS count over selection days 2 and 3 (reads of this peptide / all reads for the bait, averaged over ….

Regarding chain 1 D9N, the screen value was 0.0514 average fractional NGS count over selection days 2 and 3 (reads of this peptide / all reads for the bait, averaged over …. Take chain 1 D9Q: the screen value is 0.000191 average fractional NGS count over selection days 2 and 3 (reads of this peptide / all reads for the bait, averaged over …. On to chain 1 M12N, for which the screen value is 0.00321 average fractional NGS count over selection days 2 and 3 (reads of this peptide / all reads for the bait, averaged over …. Take chain 1 M12H: the screen value was 0.000156 average fractional NGS count over selection days 2 and 3 (reads of this peptide / all reads for the bait, averaged over …. Same read-out and setting: as for chain 1 M12Y, the figure is 0.000582 average fractional NGS count over selection days 2 and 3 (reads of this peptide / all reads for the bait, averaged over …; as for chain 1 M12S, 0.000927 average fractional NGS count over selection days 2 and 3 (reads of this peptide / all reads for the bait, averaged over …; as for chain 1 M12A, 0.00221 average fractional NGS count over selection days 2 and 3 (reads of this peptide / all reads for the bait, averaged over …. On the same count and under the same terms, as for chain 1 E7K, the figure is 0.00106 average fractional NGS count over selection days 2 and 3 (reads of this peptide / all reads for the bait, averaged over ….
